No end group written: not given here.
Target: T1, ψIRS1-Cargo V5 (Homo sapiens, UniProt Q05655, not fully specified)
T1 chain: EKARLSYS
Test: AGILE Dev Kit binding assay

- Kd: 200 nM
B1: θPKC (protein)
chain: MSPFLRIGLSNFDCGSCQSCQGEAVNPYCAVLVKEYVESENGQMYIQKKPTMYPPWDSTFDAHINKGRVMQIIVKGKNVDLISETTVELYSLAERCRKNNGKTEIWLELKPQGRMLMNARYFLEMSDTKDMNEFETEGFFALHQRRGAIKQAKVHHVKCHEFTATFFPQPTFCSVCHEFVWGLNKQGYQCRQCNAAIHKKCIDKVIAKCTGSAINSRETMFHKERFKIDMPHRFKVYNYKSPTFCEHCGTLLWGLARQGLKCDACGMNVHHRCQTKVANLCGINQKLMAEALAMIESTQQARCLRDTEQIFREGPVEIGLPCSIKNEARPPCLPTPGKREPQGISWESPLDEVDKMCHLPEPELNKERPSLQIKLKIEDFILHKMLGKGSFGKVFLAEFKKTNQFFAIKALKKDVVLMDDDVECTMVEKRVLSLAWEHPFLTHMFCTFQTKENLFFVMEYLNGGDLMYHIQSCHKFDLSRATFYAAEIILGLQFLHSKGIVYRDLKLDNILLDKDGHIKIADFGMCKENMLGDAKTNTFCGTPDYIAPEILLGQKYNHSVDWWSFGVLLYEMLIGQSPFHGQDEEELFHSIRMDNPFYPRWLEKEAKDLLVKLFVREPEKRLGVRGDIRQHPLFREINWEELERKEIDPPFRPKVKSPFDCSNFDKEFLNEKPRLSFADRALINSMDQNMFRNFSFMNPGMERLIS

Source: article PMC5308906 (2016)
